Laboratory results: US20220184184A1, “GLUCOSE SENSITIVE INSULIN DERIVATIVES” (Novo Nordisk A/S, priority 2019, published 2022)

Assays:
[1] = Alizarin red (ARS) colorimetric displacement assay, binding of boron compounds to glucose; conditions: statement in words
Procedure: The alizarin-red binding assay is a colorimetric assay used to determine the inhibition affinity of boronate/boroxole compounds to glucose. The assay is based on a colour shift of alizarin-red upon binding to boronate, which shift can be followed by change in absorbance in the 330-340 nm region. […] After 5 minutes of centrifugation at 4000 rpm, the plate is placed in a multi-well spectrometer (SpectraMax, Molecular Devices) for absorption detection. […] Upon complete dissolution of the compound, 200 μM of Alizarin red (ARS) is added to the solution. The ARS-boronate solution is then aliquoted into a 96 multiwell plate (black, flat and clear bottom) 1:1 with appropriate carbohydrate. […] The plate with ARS-boronate mixed with carbohydrate is incubated 20 minutes at room temperature. After 5 minutes of centrifugation at 4000 rpm the plate is placed in a multiwell spectrometer (SpectraMax, Molecular Devices) for absorption detection.

[2] = molecular target: T1, human Insulin Receptor A (hIR-A) (human, UniProt P06213-2 28-1370); test: SPA competition vs 125I-insulin, hIR-A, 1.5% HSA, no glucose
T1 construct: Solubilised semi-purified receptor captured on SPA beads by antibody 83-7
Procedure: (§1) BHK cells over-expressing human Insulin Receptor A (hIR-A) were lysed in 50 mM Hepes pH 8.0, 150 mM NaCl, 1% Triton X-100, 2 mM EDTA and 10% glycerol. The cleared cell lysate was batch absorbed with wheat germ agglutinin (WGA)-agarose (Lectin from Triticum vulgaris-Agarose, L1394, Sigma-Aldrich Steinheim, Germany) for 90 minutes. The receptors were washed with 20 volumes 50 mM Hepes pH 8.0, 150 mM NaCl and 0.1% Triton X-100, where after the receptors were eluted with 50 mM Hepes pH 8.0, 150 mM NaCl, 0.1% Triton X-100, 0.5 M n-Acetyl Glucosamine and 10% glycerol. All buffers contained Complete (Roche Diagnostic GmbH, Mannheim, Germany) as described in Andersen et al. 2017 PLos One 12.
(§2) In order to test the glucose sensitivity, the binding experiments were set up in absence or presence of 20 mM glucose. The plates were rocked gently for 22.5 hours at 22° C., centrifuged for 5 minutes at 1000 rpm and counted in TopCounter (Perkin Elmer). Data points were fitted to a four-parameter logistic model, whereby the relative affinity of the analogue compared to human insulin (within the same plate) was determined.

[3] = molecular target: T1, human Insulin Receptor A (hIR-A); test: SPA, relative hIR-A affinity at 20 mM vs 0 mM glucose, 1.5% HSA
Procedure: as §1, §2

[4] = molecular target: T2, human Insulin Receptor A (hIR-A) (human, UniProt P06213-2 28-1370); test: SPA, displacement of 125I-insulin from solubilised hIR-A, 1.5% HSA, no glucose; affinity relative to human insulin
T2 construct: Solubilized semi-purified receptor captured on SPA beads through antibody 83-7
Procedure: as §1, §2

[5] = molecular target: T2, human Insulin Receptor A (hIR-A); test: SPA, displacement of 125I-insulin from solubilised hIR-A, 1.5% HSA; increase in relative affinity from 0 to 20 mM glucose
Procedure: as §1, §2

[6] = molecular target: T3, human Insulin Receptor A (hIR-A) (human, UniProt P06213-2 28-1370); test: SPA, relative hIR-A affinity at 20 mM over 0 mM glucose
T3 construct: Solubilised, semi-purified receptor
Procedure: as §1, §2

[7] = molecular target: T3, human Insulin Receptor A (hIR-A); test: SPA, competition with 125I-insulin on solubilised hIR-A, relative to human insulin
Procedure: as §1, §2

HIR affinity relative HI (%), 1.5% HSA [2]	HIR glucose factor, 20 mM glucose 1.5% HSA [3]	Molecule	also measured
–	–	O=C(O)c1cc(F)c2c(c1)B(O)OC2 [Example 43, 4-fluoro-1-hydroxy-1,3-dihydrobenzo[c][1,2]oxaborole-6-carboxylic acid]	affinity to glucose compared with the diboron compounds [1]: weaker affinity to glucose
–	–	O=C(O)c1cc2c(c(C(F)(F)F)c1)COB2O [Example 42, 1-Hydroxy-4-(trifluoromethyl)-1,3-dihydrobenzo[c][1,2]oxaborole-6-carboxylic acid]	affinity to glucose compared with the diboron compounds [1]: weaker affinity to glucose
3.5%	4.5 fold	Compound of Example 146 (ligand, not fully specified; diboron group from building block of example 16; sites only in drawing) chain 1: GIVEQCCTSICSLEQLENYCNK chain 2: FVNQHLCGSHLVEALYLVCGERGFHYPK	–
–	–	Compound of Example 349 (ligand, diboron group of building block of Example 38 on amino group(s); site(s) shown only in the drawing) chain 1: GIVEQCCTSICSLEQLENYCNK chain 2: FVNQHLCGSHLVEALYLVCGERGFHYPK	HIR affinity relative HI (%), 1.5% HSA [4]: 1%; HIR glucose factor, 20 mM glucose 1.5% HSA [5]: 4.7 fold
6.7%	2.8 fold	Compound of Example 149 (ligand, not fully specified; diboron group from building block of example 15; sites only in drawing) chain 1: GIVEQCCTSICSLEQLENYCNK chain 2: FVNQHLCGSHLVEALYLVCGERGFHYPK	–
–	–	Compound of Example 348 (ligand, diboron group of building block of Example 39 on amino group(s); site(s) shown only in the drawing) chain 1: GIVEQCCTSICSLEQLENYCNK chain 2: FVNQHLCGSHLVEALYLVCGERGFHYPK	HIR affinity relative HI (%), 1.5% HSA [4]: 0.2%; HIR glucose factor, 20 mM glucose 1.5% HSA [5]: 7.3 fold
2.2%	5.9 fold	Compound of Example 166 (ligand, not fully specified; diboron group from building block of example 20; sites only in drawing) chain 1: GIVEQCCTSICSLEQLENYCNK chain 2: FVNQHLCGSHLVEALYLVCGERGFHYPK	–
–	–	Compound of Example 352 (ligand, diboron group of building block of Example 40 on amino group(s); site(s) shown only in the drawing) chain 1: GIVEQCCTSICSLEQLENYCNK chain 2: FVNQHLCGSHLVEALYLVCGERGFHYPK	HIR glucose factor, 20 mM glucose 1.5% HSA [5]: 5.2 fold
5.3%	3 fold	Compound of Example 155 (ligand, not fully specified; diboron group from building block of example 19; sites only in drawing) chain 1: GIVEQCCTSICSLEQLENYCNK chain 2: FVNQHLCGSHLVEALYLVCGERGFHYPK	–
13.3%	1.3 fold	Compound of Example 150 (ligand, not fully specified; diboron group from building block of example 18; sites only in drawing) chain 1: GIVEQCCTSICSLEQLENYCNK chain 2: FVNQHLCGSHLVEALYLVCGERGFHYPK	–
4.9%	2.9 fold	Compound of Example 152 (ligand, not fully specified; diboron group from building block of example 15; sites only in drawing) chain 1: GIVEQCCTSICSLEQLENYCNK chain 2: FVNQHLCGSHLVEALYLVCGERGFHYPGK	–
2%	9.9 fold	Compound of Example 158 (ligand, not fully specified; diboron group from building block of example 16; sites only in drawing) chain 1: GIVEQCCTSICSLEQLENYCNK chain 2: FVNQHLCGSHLVEALYLVCGERGFHYPGK	–
6.1%	3.7 fold	Compound of Example 154 (ligand, not fully specified; diboron group from building block of example 19; sites only in drawing) chain 1: GIVEQCCTSICSLEQLENYCNK chain 2: FVNQHLCGSHLVEALYLVCGERGFHYPGK	–
–	–	compound of Example 271: A14E A22K B25H desB27 desB30 human insulin conjugated with building block of example 22 (ligand, not fully specified; diboron group(s) of example 22, sites only in drawing, number and sites of diboron groups only in drawing) chain 1: GIVEQCCTSICSLEQLENYCNK chain 2: FVNQHLCGSHLVEALYLVCGERGFHYPK	HIR glucose factor, 20 mM glucose 1.5% HSA [6]: 7.1 fold
8.6%	2.3 fold	Compound of Example 141 (ligand, diboron group from building block of example 2; sites only in drawing) chain 1: GIVEQCCTSICSLEQLENYCNK chain 2: FVNQHLCGSHLVEALYLVCGERGFHYPK	–
–	–	compound of Example 272: A14E A22K B25H desB27 desB30 human insulin conjugated with building block of example 29 (ligand, not fully specified; diboron group(s) of example 29, sites only in drawing, number and sites of diboron groups only in drawing) chain 1: GIVEQCCTSICSLEQLENYCNK chain 2: FVNQHLCGSHLVEALYLVCGERGFHYPK	HIR glucose factor, 20 mM glucose 1.5% HSA [6]: 12.1 fold; HIR affinity relative HI (%), 1.5% HSA [7]: 0.2%
–	–	Compound of Example 350 (ligand, diboron group of building block of Example 37 on amino group(s); site(s) shown only in the drawing) chain 1: GIVEQCCTSICSLEQLENYCNK chain 2: FVNQHLCGSHLVEALYLVCGERGFHYPK	HIR affinity relative HI (%), 1.5% HSA [4]: 0.1%; HIR glucose factor, 20 mM glucose 1.5% HSA [5]: 18.4 fold
4%	3.2 fold	Compound of Example 139 (ligand, diboron group from building block of example 9; sites only in drawing) chain 1: GIVEQCCTSICSLEQLENYCNK chain 2: FVNQHLCGSHLVEALYLVCGERGFHYPK	–
